Data on 18 sequences can be found in the DeepSol protein solubility set.

This data set in a line: soluble on expression in E. coli; label from the status in PepcDB or PDB records.
As to “MGSDKIHHHHHHMEFLRNTWYAAGWSQDLAAGAMLGRTMLNEQLVLFRADDGTVSALSDICPHRFAPLHLGKIVDGCRIQCAYHALEFDGTGACVKNPHGKQKIPAAAKLQAYPVVEKHSLIWVWMGEQAAADPSVIPDFSMLDPDSGFQVSRRDWLHMDASYDLVVDNLMDLSHTAFLHDGILGSKYTIKADTSLEQTGETVKVTRLMPNVPVPGFFDLMFNRDGGIVDYWTEIRWNLPGCLMNNTGVTLPGAPRSEGTGVYGMHFLTPETDVSCWYHFAAVRQNPRTWGEPIDTEIKEKISDLRRYAFEEQDQWIIKAQQQTILRAKGNLQPVSLETDIGIERYKRILKAALVAERSGSTMAA”, the “soluble on expression in E. coli” value is “not soluble”.

Take “MSLEQLLGRGEAAPSVRYDETIQKIIPIIKNSIRLPDDLRDRKTIWEFIRPQLMGIKALEAGFSMALWDWWGQKIGRPIFELLSVKTKMLPQTSYTISIGGFDELGAKLEEAKPYSILKVKLGTPKMDKEIITEIRRHTEKLIRVDANEGWTEDVALEMSFWLADRNIEFIEQPFPAKDLNSSIELKKKSPLEIFADENSLNSNDIKPIRHAFHGINIKLMKCGSLEEGKKMIDVARENGLKVMLGCMVETSVGITSASHLAGEVDFVDLDGNLLIKNDPYSGVLVNNGRLVLQKGNGSGVKLSSDYRNILEEGHHHHHH”: the “soluble on expression in E. coli” value is given as “soluble”.

Consider “MGSDKIHHHHHHMNISTIVSNLKDLILEVRAPYDLEITGVSNHSSKVKKGDLFICRRGEKFDSHEIIPEVMEKGAVAVVVEREIDLDFPYIQVFDSRYFEAKVASLFFEDPWKDVLTFGVTGTNGKTTTTMMIYHMLTSLGERGSVLTTAVKRILGNSYYDDITTPDAITILSAMKENREGGGKFFALEVSSHALVQQRVEGVRFDVGIFTNISRDHLDFHGTFENYLKAKLHLFDLLKDDGVAVLNESLADAFNRKSRKITFGTSKNADYRLGNIEVSWEGTQFVLETPDGLLKVFTRAIGDFNAYNAAAAIAALHQLGYDPKDLASSLETFTGVEGRFEVVRGAKKIGLNVVVDFAHSPDALEKLLKNVRKISQGRVIVVFGAGGNSDRGKRPMMSEVASKLADVVILTTDDPRGEDPEQIMEDLIKGIDKRKPYLVLFDRREAIETALTIANRGDSVVIAGRGHERYQIIDEEKKVPFQDREVVEEIIRDKLKGRKYAQ”, for which the “soluble on expression in E. coli” value is “not soluble”.

Take “DTTKNIFIEGDNLDALKLLQENYLGKIKMVYIDPPYNTGNDFVYADDFVDEVSEFFLRSNQVDREGNRLTANPETSGRFHSDWLSMMYSRLKLSRNLLRDDGLIVIHIDENEYPNLEKLLAEIYGEKNNLGTIVWDKRNPKGDATGVAQQHELICIYCKDREFFKTTCEFQRPKENAGKMLAKAKQILSKEGGVTEKARKEYKDWVNQQDLTGGEKAYNQIDDNGDVFRPVSMAWPNKKKAPEDYFIPLIHPVTGKECPVPERGWRNPPATMQELLKSGLIIFGPDEKTQPTRKYRLNDNLFENIPSLLYYGGSDDALLADLKIPFDTPKPVQVAKRLIQSICKNDDILIDFFAGSCTAAHALMLLNAEDGANRRFIMVQLPEECDEKSEAKKLGYSVVSEIGKNRIRRAAKKIREEFSEILATRNTELDLGFRLLKVDTSNMAD”: the “soluble on expression in E. coli” value is “not soluble”.

For “MHFKRVVKWGLNMYQNQRIKDKINILGVNFDNTTMLEMLENIKQFISSNTDDNLFIVTANPEIVDYATEHELYRNLINQADYVVPDGTGIVKASKRLKQPLKRRVPGIELLEECLKIAHVSHQRVYLLGSKNEIVETAEKKLQSQYPNIHFAHHHGYIHLEDETVIKRITSFNPDYIFVGMGFPKQEQWIQKHKDKFKHTVMMGVGGSFEVFSGSKKRAPQIFRKLNIEWVYRVLIDWKRIGRMISIPKFMLKVAIQKYKMKSK”, the “soluble on expression in E. coli” value is “not soluble”.

Turning to “MSLQAAKEVCLWPLHEREPDTTWSRGPLVLLGDAGHPMRPHMAQGAAMAIEDAAVLVRCLRAYGAAAGAAYDHYQQTRAERVAQVQKVSSENSWMRTPTDPEWVFSYDALLAPEGHHHHHH”, the “soluble on expression in E. coli” value was “not soluble”.

On to “MGHHHHHHSHMVKDIIIASFYKFIPLNDFESLREPILTKMHEIGIKGTIILAHEGVNGGFAGNREQMNVFYDYLRSDSRFADLHFKETYDNKNPFDKAKVKLRKEIVTMGVQKVDPSYNAGTYLSPEEWHQFIQDPNVILLDTRNDYEYELGTFKNAINPDIENFREFPDYVQRNLIDKKDKKIAMFCTGGIRCEKTTAYMKELGFEHVYQLHDGILNYLESIPESESLWEGKCFVFDDRVAVDQKLDRVYPQLPQDYKYEREQK”, for which the “soluble on expression in E. coli” value was “soluble”.

With “MRYPIMNNFFKIHDNLLRNLSPSLRRGLMDEIDWNDRLIGIKGARGMGKTTFLLDYARENFGIGNRKCLYINLNQLYFTTESLVNFAGEFVKQGGEVLLLDQVFKYPNWSIELRQCMELYPDLRIVFTGSTVMRLKEENPELNGLVTSYVLNGFSFREFLNLKTGLSLQPYSFDEIVSNHEQIAPRILEQVNPLDWFQDYLHHGYYPIFLEDKNYSESLLKTLNMTLEVDVLFIRQIEQRFLHKLRKLLYLLGQRAPGSLNISSIAKEVDTSRTTITNYLKYLSEARLIKELHREEETGAKKPAMIYLDNTNVGYVIQPEPLNYIDVLKTFFLNQVKSRNEVCLGSRSQIAFCVNRQYQFCIDEKMSRRYRPDRYYAIQNMRSGTRNMIPLWLFGFLY”, the “soluble on expression in E. coli” value is reported as “not soluble”.

Turning to “GPGSMAPAVIEIHIPLDRIRNEEYATDDLLLNCLSKIGDTPEEDGLPLRTWILREAHQALIKSPKLRTVLVKPQTVKDKPTHFQICFDE”, the “soluble on expression in E. coli” value is on record as “soluble”.

Regarding “SEESRESPAEHGYYMPAEWDSHAQTWIGWPERQDNWRHNALPAQRVFAGVAKAISKFEPVTVCASPAQWENARKQLPEDIRVVEMSMNDSWFRDSGPTFIVRKRPVKLSSLNRNIAGIDWNFNAWGGANDGCYNDWSHDLLVSRKILALERIPRFQHSMILEGGSIHVDGEGTCLVTEECLLNKNRNPHMSKEQIEEELKKYLGVQSFIWLPRGLYGDEDTNGHIDNMCCFARPGVVLLSWTDDETDPQYERSVEALSVLSNSIDARGRKIQVIKLYIPEPLYMTEEESSGITQDGEAIPRLAGTRLAASYVNFYIANGGIIAPQFGDPIRDKEAIRVLSDTFPHHSVVGIENAREIVLAGGNIHCITQQQPAEPTSVAENGH”, the “soluble on expression in E. coli” value is listed as “soluble”.

“MSLGEDEEKAFIVGTVQAIFFENPSNFYKVVLVNVTDTNTDYLEKEIVVTGSFGQVQEEEPYRFFGHFVDHPRYGRQFQVDSYQQERPTSASGVVNYLSSDKFPGIGKRTAEKIVEVLGESAIDRIIDDPSVLEEVTVLNEKKRQVIVETIRLNHGMEQVIVGLNRYGFGSQLAFSIYQTYQEETLSVIQENPYQLVEDIEGVGFKRADNIAEQIGIQADSAVRIRAAILHEVFEHSIRSGNTYVQADVLLEEAIRTLEASRPVEISPDQVANEIITLVEHGKIQQEETKLFENSLYFSEWGIGTSIQRLLSRKKEIHYEEEEVQKNIRMIEKRLNIQYGDSQQAAIEEAIKSPLFILTGGPGTGKTTVINGIVSLFAELNGLSLDLKDYTQEMFPILLAAPTGRAAKRMNETTGLPASTIHRLLGLTGREKNPSLTAKELEGGLLIVDEMSMVDTWLANTLLKAIPTNMQVIFVGDKDQLPSVGPGQVLHDLLQINEIPKCELNEIYRQGDGSSIIPLAHEIKEGKLPADFQKNQKDRSFFASDIGHIEEYIRQIVTKAKAKGFTPQDIQVLAPMYRGAAGIDALNKMMQEIFNPNDGKKKEVKWNDTVYRIGDKVLQLVNTPELNVFNGDMGEIVGITLAKDSEDKVDELVLQFDNNEVTYKRNEWNKITLSYCCSIHKAQGSEFRMVLLPMVHQYSRMLQRNLLYTAVTRSKELLILLGEVSAFETCVKNESASRMTMLKERIVNAEQEGHHHHHH”: the “soluble on expression in E. coli” value is “soluble”.

With “MGSDKIHHHHHHMNNTIPRWRGFNLLEAFSIKSTGNFKEEDFLWMAQWDFNFVRIPMCHLLWSDRGNPFIIREDFFEKIDRVIFWGEKYGIHICISLHRAPGYSVNKEVEEKTNLWKDETAQEAFIHHWSFIARRYKGISSTHLSFNLINEPPFPDPQIMSVEDHNSLIKRTITEIRKIDPERLIIIDGLGYGNIPVDDLTIENTVQSCRGYIPFSVTHYKAEWVDSKDFPVPEWPNGWHFGEYWNREKLLEHYLTWIKLRQKGIEVFCGEMGAYNKTPHDVVLKWLEDLLEIFKTLNIGFALWNFRGPFGILDSERKDVEYEEWYGHKLDRKMLELLRKY”, the “soluble on expression in E. coli” value was “soluble”.

Consider “MVLDSGTQVYEQAPPRPPAGSPSQHHKLKPSNGNGPPLYPWPESLGMPLALAVPSALQQQTMWQTFSKLHLEQSSHMRRSESTYSVNSTGRRGRGKAPIGRGCDPGGTLRPAASLPHIAKIRKDVGSSSSKSPCMLVALRPTNMDQEREKFFQSHYTYNPQFEYQEPMPMSVLEKYQEASAQFMNQAVGIIEAVLEKFGTYENFEAATGGQLLTKCQIWSTVRKYMQKEGCVGEIVVQLSEDLLSQAVMMVENSRPTLAINLTGARQYWLEGMLRHEIGTHYLRGVNNSRQPWHSTEGRLQYGLQPANPTEEGLASLHSVLFRKQPFLWRAALLYYTIHQAAHMSFRQLFQDLAQYVQDEGVRWEYCVRAKRGQTDTSQPGCFSKDQVYLDGILRILRHRHTIDFQLLTSLGKVSYEDVEQLRPYGVLDNTRVPHFMKDLERYRQQLEHIMTTNRLDEAELGRLLPD”, for which the “soluble on expression in E. coli” value is “soluble”.

Turning to “MATNRSRRLRKKLCVDEFQELGFELNFHYKEGVDADAVNAFMLRFIDQAIEANELTYGGCDEFGFVCLARRGSVNEEQRALIEAWLKQQPELASVEVGALVDAWYPEQPVLPKL”, the “soluble on expression in E. coli” value is recorded as “not soluble”.

“FLGELLIDLPLPVDTPSVDQCEKCRACITSCPTQAIVEDKVVDARRCISYLTIEFDGVIPEEFRKPMGNRIYGCDDCQLVCPWNRYADVTEQEDFHRRESFHNPDLVE”: the “soluble on expression in E. coli” value is “not soluble”.

“MSLNIAKIVREAREQSRLTTLDFATGIFDEFIQLHGDRSFRDDGAVVGGIGWLGDQAVTVVGIQKGKSLQDNLKRNFGQPHPEGYRKALRLMKQAEKFGRPVVTFINTAGAYPGVGAEERGQGEAIARNLMEMSDLKVPIIAIIIGEGGSGGALALAVADRVWMLENSIYAILSPEGFASILWKDGTRAMEAAELMKITSHELLEMDVVDKVISEVGLSSKELIKSVKKELQTELARLSQKPLEELLEERYQRFRKYEGHHHHHH”: the “soluble on expression in E. coli” value is given as “soluble”.

On to “MSLNNKVLVTGGTGFVGMRIISRLLEQGYEVQTTIRDLSKADKVIKTMQDNGISTERLMFVEADLSQDEHWDEAMKDCKYVLSVASPVFFGKTDDAEVMAKPAIEGIQRILRAAEHAGVKRVVMTANFGAVGFSNKDKNSITNESHWTNEDEPGLSVYEKSKLLAEKAAWDFVENENTIVEFATINPVAIFGPSLDAHVSGSFHLLENLLNGSMKRVPQIPLNVVDVRDVAELHILAMTNEQANGKRFIATADGQINLLEIAKLIKEKRPEIAQKVSTKKLPDFILSLGAKFNHQAKEGKLLLDMNRNVSNERAKTLLGWEPIATQEEAILAAIDSMAKFHLIEGHHHHHH”, for which the “soluble on expression in E. coli” value is reported as “soluble”.

“MGSDKIHHHHHHMKKLVENLLSWCKKSMKMRRCVGKSTAPVTGQSVGQTGNAEGVLPSTATETVDEIVLPAAVETAGMVETIDEKAAFGKSGRKKPENMLDALQRFLTIRYDFRYNLLTEQTEYRGKEMPDEEYAMVAQRDLNTFCLEARTGGINCWDKDVSRLLHSRKVENYHPFLHYMSHLPQWDGVDRVTPLAVRISRKPMWVKGFHRWMLGVAAQWLGQAQDCANAVAPMLVSREQGKRKSSFCKILMPKELTPYYIDKFDLTSESGCEQKLSLFGLINMDEFDKYRAGQMPALKNLMQTTTLTFRRAHRPAFSHLPRIASFIGTSNMTDLLTDPTGSRRFLCAEVDGKIDCTPPDHAQLFAQLKAELAGGERYWFSEEEEKEIQHSNRNFYKMPAEQELFLRCFRMPQEGELSKPYTTTDLFNYLQKHYPAAMRGVTPNRLGRMMVALGIQRVHTEYGNVYRLVKLKDSSAA”: the “soluble on expression in E. coli” value was “not soluble”.
